According to patent US7893021B2, “Parathyroid hormone antagonists and uses thereof” (Scantibodies Laboratory, Inc., priority 1999, dated 2011):
Values joined by “and” are separate entries in the source; they are usually repeats but may differ in a detail not shown here. Identical values can stand only once. “Also recorded” adds a separate entry of the source.

What was measured:
[1] = test system: Normal female Sprague-Dawley rats; test: Phosphaturic response (clearance studies: GFR and FEPO4) in rats; format: in vivo, rat; settings: for glomerular filtration rate (GFR), hPTH 7-84 given with hPTH 1-84: hPTH 7-84 given five minutes prior to hPTH 1-84, molar ratio 4:1, N=8, control period 2.1±0.1
Method: Phosphaturic response. Normal female Sprague-Dawley rats weighing 225 to 250 g were prepared for clearance studies under light anesthesia. Polyethylene catheters (PE50) were placed in the femoeral artery for the collection of blood and measurement of blood pressure (Blood Pressure Analyzer; Micro-Medic, Inc., Louisville, Ky., USA), in the femoral vein for infusion and in the bladder for the collection of urine. Rats were placed in Plexiglass holders and allowed to recover from the effect of the anesthetic for one hour. A priming dose (0.6 mL) of chemical inulin in saline was administered over a period of three minutes to achieve a plasma inulin level between […]. A solution of saline containing inulin to maintain this level and calcium gluconate to deliver 0.5 mg. calcium was infused at the rate of 0.03 mL/min. After equilibration, a total of four 30-minute urine collections was obtained.
To assess the effect of hPTH 1-84 on phosphate excretion, urine was collected during two control periods, after which rats received a priming bolus of 1.8 μg of HPTH 1-84 followed by a sustained infusion that delivered a total of 8.2 μg of I-PTH. After an equilibration period of 20 minutes, two 30-minute urine collections were obtained. In competition experiments, HPTH 7-84 was given five minutes prior to hPTH 1-84 at a molar ratio of 4:1.
Blood samples and blood pressure measurements were recorded at the beginning and end of the baseline period, at the beginning of the PTH infusion period, and at the end of the study. The concentration of inulin in plasma and urine was determined by the method of Führ, Kaczmarczyk, and Kruttgen, Klin Wochenschr, 33:729-730 (1955). The estimation of the glomerular filtration rate (GFR) by inulin clearance and the calculation of the fractional urinary excretion rate of phosphorus (FEP04) were performed in the standard fashion. Blood samples were centrifuged, and plasma phosphorus and calcium concentrations were measured.

ROS/17.2 cells = test: cAMP production in osteoblastic cell line ROS/17.2; format: cell-based, rat; settings: for intracellular cAMP: 10^-8 mol/L peptide, five-minute incubation, N=6, before treatment 18.1±1.25
Method: Osteoblastic cell line. To compare the biological effects of the two peptides (HPTH 1-84 and 7-84), intracellular cAMP production was measured in the rate osteosarcoma cell line ROS/17.2, which has an osteoblastic phenotype and is known to increase cAMP production in response to PTH. Cells were cultured in Ham's F12 media containing 10% fetal bovine serum. Cells were plated out in 12 well plates at a density of 30,000 cells per well and grown to confluence. Cells were washed three times with KHMS buffer at 37° C. (KCI 4.0 mmol/L, CaCl2 1.25 mmol/L, MgSO4 1.25 mmol/L, KH2PO4 1.2 mmol/L, HEPES 10 mmol/L, NaCl 100 mmol/L, NaHCO3 37 mmol/L, and glucose 10 mmol/L, pH 7.5). cAMP production was measured using 500 μL of KHMS buffer (37°) containing isobutyl-1 methylxantine (1BMX) 1.0 mmol/L and various concentrations (10^−11 to 10^−8 mol/L) of hPTH 1-84 or hPTH 7-84. After a five-minute incubation, 100 μL of 1.8 mol/L pechloric acid were added. After an additional five-minute incubation at room temperature, 100 μL of 3 mol/KHCO3 were added to neutralize the acid. Samples were centrifuged at 3000 rpm for 15 minutes, and the supernatants were assayed for cAMP [26].

[2] = test system: rats having hypoparathyroidism (parathyroid glands removed); test: Serum calcium after i.v. injection in rats with parathyroid glands removed; format: in vivo, rat
Text: The CAP rebound effect is believed to be the body's response to an administration of CIP. This response occurs when the parathyroid gland cells secrete CAP in an effort to return the CAP/CIP ratio to homeostasis with the pre-CIP administration levels. PTH antagonist administration is not accompanied by hypercalcemia and osteosarcoma, as with direct CAP administration. […] All of the rats had their parathyroid glands removed. Five rats received an i.v. injection of a saline control. The serum calcium of the control rats was measured and on average was lowered over time by about 0.18 mg/dl by virtue of a parathyroidectomy. Nine rats received an i.v. injection (10 μg/kg) of hPTH obtained from Bachem, AG of Bubendorf, Switzerland. The serum calcium of the hPTH rats was measured and on average was raised over time by about 0.65 mg/dl. Five rats received an equimolar i.v. injection of a PTH7-84 (an exemplary PTH antagonist) also obtained from Bachem, AG of Bubendorf, Switzerland. The serum calcium of the PTH antagonist rats was measured and on average was lowered over time by about 0.30 mg/dl. Finally, six rats received an i.v. injection comprised of hPTH (10 μg/kg) and an equimolar amount of PTH antagonist PTH7-84. The serum calcium of the hPTH/PTH antagonist rats was measured and on average remained substantially the same over time, raising only about 0.03 mg/dl.

[3] = test system: parathyroidectomized (PTX) rats; test: Calcemic response in parathyroidectomized (PTX) rats fed a 0.02% calcium diet; format: in vivo, rat; settings: hPTH 7-84 given 10 minutes prior to each hPTH 1-84 injection, 1:1 molar ratio, N=6
Method: Calcemic response. Normal female Sprague-Dawley rats weighing 225 to 250 g (Harlan, Indianapolis, Ind., USA) were parathyroidectomized (PTX) and fed a 0.02% calcium diet. Rats with a plasma calcium below 7.0 mg/dL after overnight fasting were included in the study. A 20 μg dose of hPTH 1-84 or 7-84 was given intraperitoneally to PTX rats in four doses of 5 μg each at 30-minute intervals (0, 30, 60, and 90 minutes). For control studies, the rats received vehicle (saline solution) alone. Blood was drawn via the tail at 0, 60, 90, and 120 minutes. For competition experiments, rats received an injection of hPTH 7-84 10 minutes prior to each injection of hPTH 1-84. The molar ratio of hPTH 7-84:hPTH 1-84 was 1:1.
Total plasma calcium levels were determined using an atomic absorption spectrophotometer (model 110B; Perkin Elmer, Norwalk, Conn., USA). Plasma phosphorus levels were determined using an autoanalyzer (COBAS MIRA Plus; Roche, Newark, N.J., USA).

| Molecule | glomerular filtration rate (GFR) ([1]; rats infused with hPTH 1-84 alone, N=10, control period 1.8±0.3) [mL/min] | fractional excretion of phosphate (FEP04) ([1]; rats infused with hPTH 1-84 alone, N=10, control period 11.9±2.4) [%] | intracellular cAMP (ROS/17.2 cells) | cAMP production, dose dependence (ROS/17.2 cells; 10^-11 to 10^-8 mol/L peptide) | serum calcium raised over time (average) ([2]; i.v. injection 10 μg/kg hPTH alone, nine rats, saline control lowered about 0.18) | decrease of the increase in FEP04 (phosphaturia) induced by hPTH 1-84 ([1]; hPTH 7-84 coadministered with hPTH 1-84, molar ratio 4:1) [%] | glomerular filtration rate (GFR), hPTH 7-84 given with hPTH 1-84 [1] [mL/min] | glomerular filtration rate (GFR), hPTH 7-84 given with hPTH 1-84 ([1]; listed as 7-84 PTH) | serum calcium lowered over time (average) ([2]; i.v. injection of PTH7-84 alone, equimolar to 10 μg/kg hPTH, five rats, saline control lowered about 0.18) | serum calcium raised over time (average), co-injection with hPTH ([2]; i.v. injection of hPTH (10 μg/kg) and an equimolar amount of PTH7-84, six rats) | antagonist property compared with PTH3-34 ([2]; prevention of the hPTH-induced serum calcium increase in rats) | decrease of the calcemic response induced by hPTH 1-84 [3] [%] |
| --- | --- | --- | --- | --- | --- | --- | --- | --- | --- | --- | --- | --- |
| hPTH 1-84: Synthetic human PTH 1-84, the whole 84 amino acid parathyroid hormone (SEQ ID NO:1), PTH agonist, purchased from Bachem (peptide) SVSEIQLMHNLGKHLNSMERVEWLRKKLQDVHNFVALGAPLAPRDAGSQRPRKKEDNVLVESHEKSLGEANKADVNVLTKAKSQ | 1.8 ± 0.1 | 27.7±2.4 | 738±4.13 nmol/well and 738±4.1 nmol/well | increased cAMP production in a does-dependent manner; also recorded: increased cAMP production in a dose-dependent manner | about 0.65 mg/dl | – | – | – | – | – | – | – |
| hPTH 7-84: Synthetic human PTH 7-84 fragment, an exemplary PTH antagonist, obtained from Bachem (peptide) peptide: LMHNLGKHLNSMERVEWLRKKLQDVHNFVALGAPLAPRDAGSQRPRKKEDNVLVESHEKSLGEANKADVNVLTKAKSQ | – | – | no effect | – | – | 50.2 | 2.6 ± 0.2 | significant increase | about 0.30 mg/dl | about 0.03 mg/dl | much more potent in its antagonist property than the previously reported antagonist PTH3-34 | 94 |
